Laboratory results reported in the Human Domainome abundance scans (Beltran et al. 2025).
± gives the uncertainty stated by the source.

B1: Protein C-ets-1, residues 55 to 135; numbered along this chain, P14921 (parent)
chain: GFTKEQQRLGIPKDPRQWTETHVRDWVMWAVNEFSLKGVDFQKFCMNGAALCALGKDCFLELAPDFVGDILWEHLEILQKE

Variants of: B1
Experiment: abundance fitness (aPCA) (normalised: wild type 0, dead -1); higher = more abundant; growth selection in yeast, the domain comes from the species named
Settings: Homo sapiens

Abundance fitness: each site, then its substitutions
D14: A -0.533 ± 0.034; P -0.813 ± 0.068; E -0.172 ± 0.04; S -0.339 ± 0.038; K -0.547 ± 0.071; Q -0.356 ± 0.045; M -0.52 ± 0.055; R -0.684 ± 0.036; F -0.443 ± 0.052; Y -0.407 ± 0.046; L -0.552 ± 0.033; N -0.122 ± 0.061; I -0.76 ± 0.11; C -0.152 ± 0.061; G -0.844 ± 0.048; T -0.62 ± 0.05; V -0.602 ± 0.033; W -0.661 ± 0.047; H -0.155 ± 0.044
L9: V -0.126 ± 0.036; T -0.082 ± 0.048; H -0.216 ± 0.092; F -0.2 ± 0.068; A -0.182 ± 0.041; I -0.178 ± 0.086; E -0.261 ± 0.055; N -0.137 ± 0.11; K -0.139 ± 0.082; G -0.195 ± 0.028; P -0.32 ± 0.072; W -0.192 ± 0.043; R -0.017 ± 0.039; Q -0.165 ± 0.064; C -0.088 ± 0.089; M -0.066 ± 0.057; Y -0.158 ± 0.12
Q6: E -0.164 ± 0.047; P -0.389 ± 0.062; C -0.113 ± 0.053; K -0.143 ± 0.08; Y -0.058 ± 0.078; H -0.235 ± 0.047; V -0.096 ± 0.027; F -0.075 ± 0.088; T -0.102 ± 0.062; D -0.277 ± 0.063; I 0.034 ± 0.084; L -0.006 ± 0.043; S -0.005 ± 0.04; W -0.1 ± 0.044; M 0.024 ± 0.066; R -0.041 ± 0.031; A 0.019 ± 0.043; G -0.101 ± 0.028; N -0.136 ± 0.2
R16: S -0.096 ± 0.041; P -0.643 ± 0.069; I -0.038 ± 0.087; G -0.108 ± 0.034; L -0.025 ± 0.046; A -0.009 ± 0.039; M -0.029 ± 0.051; N 0.031 ± 0.082; W -0.107 ± 0.062; Y -0.049 ± 0.11; D -0.147 ± 0.052; C -0.04 ± 0.082; E -0.01 ± 0.06; V -0.055 ± 0.033; Q -0.006 ± 0.067; F -0.024 ± 0.066
P15: D -1.15 ± 0.45; A -0.351 ± 0.052; F -0.935 ± 0.14; C -0.254 ± 0.075; T -0.498 ± 0.067; W -0.685 ± 0.085; V -0.1 ± 0.038; I -0.064 ± 0.075; N -0.717 ± 0.21; L -0.281 ± 0.045; K -0.813 ± 0.25; M -0.286 ± 0.081; Q -0.838 ± 0.19; E -0.974 ± 0.14; Y -1.07 ± 0.38; S -1.02 ± 0.12; G -0.845 ± 0.068; H -0.791 ± 0.36
E20: A -0.035 ± 0.025; N -0.114 ± 0.072; L -0.209 ± 0.025; Q -0.021 ± 0.055; V -0.019 ± 0.023; T -0.036 ± 0.04; G -0.264 ± 0.023; W -0.463 ± 0.045; K -0.036 ± 0.063; P -0.059 ± 0.035; D -0.107 ± 0.032; I -0.128 ± 0.045; Y -0.224 ± 0.05; F -0.396 ± 0.05; M -0.078 ± 0.037; C -0.105 ± 0.042
K4: F 0.038 ± 0.12; L -0.085 ± 0.042; P -0.325 ± 0.068; E 0.008 ± 0.059; G -0.054 ± 0.038; N 0.024 ± 0.11; S -0.055 ± 0.043; M -0.043 ± 0.053; Y -0.039 ± 0.092; R -0.071 ± 0.036; C -0.108 ± 0.065; V -0.098 ± 0.036; A -0.178 ± 0.051; T -0.071 ± 0.066; Q -0.031 ± 0.054; W -0.207 ± 0.062; H -0.148 ± 0.076; I 0.037 ± 0.11
E5: A -0.062 ± 0.045; M -0.018 ± 0.059; Y -0.045 ± 0.1; K -0.183 ± 0.06; I -0.105 ± 0.098; F -0.088 ± 0.07; R -0.132 ± 0.035; V -0.05 ± 0.039; W -0.186 ± 0.066; L -0.108 ± 0.044; G -0.253 ± 0.028; D -0.216 ± 0.085; Q -0.123 ± 0.061; C -0.129 ± 0.077; H -0.087 ± 0.095; S -0.245 ± 0.046; T -0.117 ± 0.069
W18: L -0.954 ± 0.077; M -1.08 ± 0.27; K -1.01 ± 0.18; A -0.967 ± 0.082; H -1.05 ± 0.27; D -0.962 ± 0.24; T -0.999 ± 0.13; C -0.785 ± 0.13; E -0.814 ± 0.086; R -0.733 ± 0.061; N -0.965 ± 0.21; V -0.891 ± 0.077; G -0.992 ± 0.074; Q -0.899 ± 0.23; F -1.11 ± 0.2
T21: H -0.067 ± 0.074; I -0.143 ± 0.056; L -0.064 ± 0.037; A 0.002 ± 0.033; F -0.11 ± 0.07; D 0.081 ± 0.065; G -0.008 ± 0.029; M -0.058 ± 0.059; E -0.073 ± 0.071; C -0.089 ± 0.049; K -0.022 ± 0.073
I11: M -0.043 ± 0.05
